Data on two substances can be found in article PMC5665596.

Test [1] concerns the target MotS (B. subtilis). Put plainly: high-speed atomic force microscopy.
Test [2] addresses MotS_(D30A) (B. subtilis). The test can be described thus: high-speed atomic force microscopy.

In the case of MotS (natural protein), in test [1], the stoichiometry N (usually the number of molecules, sites or subunits per partner or assembly) came out at 2.
In test [2], MotS_(D30A) (natural protein) registered a percent of particles with an unfolded conformation of MotSC of 18%.
